Legend:
[1] = molecular target: T1, human GPC3 on CHO-K1-human GPC3 cells (CHOK1-hGPC3.2B5) (human, UniProt P51654 25-554); assay: FACS, CHOK1-hGPC3.2B5 cells;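 note: flow cytometry of humanized antibodies binding to the cells over one hour in the cold, read as cell mean fluorescence intensity, with EC50 obtained by curve fitting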
T1 construct: whole, on cells
Protocol: The desired cells were expanded to a logarithmic growth phase in a T-75 cell culture flask, the medium was removed by pipetting, and the cells were washed twice with a PBS buffer, and digested with trypsin. Then a complete medium was added to stop the digestion, and the cells were blown into a single cell suspension. After counting, the cells were centrifuged, and the cell pellet was resuspended with an FACS buffer (PBS+2% fetal bovine serum) to 2×10⁶ cells/mL. The cell resuspension solution was added to a 96-well FACS reaction plate at 50 μl/well, and a humanized antibody sample to be tested was added at 50 μl/well for incubation at 4° C. for 1 h. […] After the plate was centrifuged and washed 3 times with a PBS buffer, 100 μl of the resulting solution was assayed and analyzed by FACS (FACS Canto™, purchased from BD Biosciences). Data analysis was performed by software (FlowJo) to obtain the mean fluorescence intensity (MFI) of the cells. Then, analysis was performed by software (GraphPad Prism8), data were fitted, and EC₅₀ values were calculated.

[2] = molecular target: biotinylated labeled human GPC3 protein (produced in-house) (human, UniProt P51654 25-559, limits assumed, biotinylated (Dojindo, Cat. No. LK03); sites not stated); assay: ELISA, biotinylated human GPC3 protein

Row | EC50 [1] [nM] | Max MFI [1] [MFI] | OD450 at 0.0008 nM [2] [OD450] | OD450 at 0.004 nM [2] [OD450] | OD450 at 0.02 nM [2] [OD450] | OD450 at 0.11 nM [2] [OD450] | OD450 at 0.53 nM [2] [OD450] | OD450 at 2.67 nM [2] [OD450] | OD450 at 13.33 nM [2] [OD450] | OD450 at 66.66 nM [2] [OD450] | Binder
1 | 0.269 | 3270 | 0.184 | 0.327 | 0.874 | 1.85 | 2.33 | 2.42 | 2.54 | 2.67 | hAb001H1aL1 (antibody, human IgG1, V domains shown, Humanized F2.169.2; VH H1a + VL L1; expressed as human IgG1) VH: EVQLVESGGGLVQPGGSLRLSCAASGFSFNTNAMNWVRQAPGKGLEWVGRIRSKSNNYATYYADSVKGRFTISRDDSKNSLYLQMNSLKTEDTAVYYCVRDGYYVLFAYWGQGTLVTVSS VL: DIVMTQTPLSLPVTPGEPASISCRFSQSIVNSNGNTYLEWFLQKPGQSPQLLIYKVSNRFSGVPDRFSGSGSGTDFTLKISRVEAEDVGVYYCFQGSHVPFTFGQGTKLEIK
2 | 6.56 | 6190 | 0.121 | 0.233 | 0.654 | 1.72 | 2.26 | 2.26 | 2.33 | 2.32 | hAb007LH2L1 (antibody, human IgG1, V domains shown, Humanized F3.81.19; VH H2 + VL L1; expressed as human IgG1) VH: EVQLVQSGAEVKKPGSSVKVSCKASGYTFTDYEMHWVRQAPGQGLEWMGTIDPETGNTAYNQKFKGRVTITADKSTSTAYMELSSLRSEDTAVYYCTRPYSLTYWGQGTLVTVSS VL: DIVMTQTPLSLPVTPGEPASISCRSSQSFVHSNGDTYLQWYLQKPGQSPQLLIYKVSNRFSGVPDRFSGSGSGTDFTLKISRVEAEDVGVYYCFQGSHVPYTFGQGTKLEIK
3 | 1.42 | 5220 | 0.16 | 0.427 | 1.19 | 2.15 | 2.5 | 2.47 | 2.57 | 2.49 | hAb003LH1L1 (antibody, human IgG1, V domains shown, Humanized F2.154.1; VH H1 + VL L1; expressed as human IgG1) VH: EVQLVQSGAEVKKPGSSVKVSCKASGYTFSDYEMHWVRQAPGQGLEWMGTIDPETGNTAYTQKFMDRVTITADKSTSTAYMELSSLRSEDTAVYYCTRGYSFTYWGQGTLVTVSS VL: DIVMTQTPLSLPVTPGEPASISCRSSQNIVHSNGNTYLQWYLQKPGQSPQLLIFKVSNRFSGVPDRFSGSGSGTDFTLKISRVEAEDVGVYYCFQGSHVPFTFGQGTKLEIK
4 | 0.325 | 3070 | 0.174 | 0.298 | 0.809 | 1.93 | 2.5 | 2.62 | 2.72 | 2.76 | hAb001H1aL1b (antibody, human IgG1, V domains shown, Humanized F2.169.2; VH H1a + VL L1b; expressed as human IgG1) VH: EVQLVESGGGLVQPGGSLRLSCAASGFSFNTNAMNWVRQAPGKGLEWVGRIRSKSNNYATYYADSVKGRFTISRDDSKNSLYLQMNSLKTEDTAVYYCVRDGYYVLFAYWGQGTLVTVSS VL: DIVMTQTPLSLPVTPGEPASISCRFSQSIVNSNANTYLEWFLQKPGQSPQLLIYKVSNRFSGVPDRFSGSGSGTDFTLKISRVEAEDVGVYYCFQGSHVPFTFGQGTKLEIK
5 | 6.17 | 2550 | 0.096 | 0.141 | 0.437 | 1.53 | 2.27 | 2.42 | 2.57 | 2.58 | hAb001H2L1a (antibody, human IgG1, V domains shown, Humanized F2.169.2; VH H2 + VL L1a; expressed as human IgG1) VH: EVQLVESGGGLVQPGGSLRLSCAASGFSFNTNAMNWVRQAPGKGLEWVGRIRSKSNNYATYYADSVKDRFTISRDDSKSSLYLQMNSLKTEDTAVYYCVRDGYYVLFAYWGQGTLVTVSS VL: DIVMTQTPLSLPVTPGEPASISCRFSQSIVNSDGNTYLEWFLQKPGQSPQLLIYKVSNRFSGVPDRFSGSGSGTDFTLKISRVEAEDVGVYYCFQGSHVPFTFGQGTKLEIK
6 | 0.455 | 3370 | 0.154 | 0.287 | 0.787 | 1.94 | 2.46 | 2.52 | 2.53 | 2.67 | hAb001H2L1b (antibody, human IgG1, V domains shown, Humanized F2.169.2; VH H2 + VL L1b; expressed as human IgG1) VH: EVQLVESGGGLVQPGGSLRLSCAASGFSFNTNAMNWVRQAPGKGLEWVGRIRSKSNNYATYYADSVKDRFTISRDDSKSSLYLQMNSLKTEDTAVYYCVRDGYYVLFAYWGQGTLVTVSS VL: DIVMTQTPLSLPVTPGEPASISCRFSQSIVNSNANTYLEWFLQKPGQSPQLLIYKVSNRFSGVPDRFSGSGSGTDFTLKISRVEAEDVGVYYCFQGSHVPFTFGQGTKLEIK
7 | 45.1 | 2070 | 0.082 | 0.115 | 0.334 | 1.12 | 1.97 | 2.27 | 2.21 | 2.45 | hAb003LH1L1a (antibody, human IgG1, V domains shown, Humanized F2.154.1; VH H1 + VL L1a; expressed as human IgG1) VH: EVQLVQSGAEVKKPGSSVKVSCKASGYTFSDYEMHWVRQAPGQGLEWMGTIDPETGNTAYTQKFMDRVTITADKSTSTAYMELSSLRSEDTAVYYCTRGYSFTYWGQGTLVTVSS VL: DIVMTQTPLSLPVTPGEPASISCRSSQNIVHSDGNTYLQWYLQKPGQSPQLLIFKVSNRFSGVPDRFSGSGSGTDFTLKISRVEAEDVGVYYCFQGSHVPFTFGQGTKLEIK
8 | 1.07 | 5140 | 0.151 | 0.376 | 1.03 | 1.98 | 2.43 | 2.47 | 2.53 | 2.54 | hAb003LH2L1 (antibody, human IgG1, V domains shown, Humanized F2.154.1; VH H2 + VL L1; expressed as human IgG1) VH: EVQLVQSGAEVKKPGSSVKVSCKASGYRFTDYEMHWVRQAPGQGLEWMGTIDPETGNTAYTQKFMDRVTITADKSTSTAYMELSSLRSEDTAVYYCTRGYSFTYWGQGTLVTVSS VL: DIVMTQTPLSLPVTPGEPASISCRSSQNIVHSNGNTYLQWYLQKPGQSPQLLIFKVSNRFSGVPDRFSGSGSGTDFTLKISRVEAEDVGVYYCFQGSHVPFTFGQGTKLEIK
9 | 1.2 | 5010 | 0.147 | 0.371 | 1.11 | 2.1 | 2.35 | 2.5 | 2.44 | 2.65 | hAb003LH1L1b (antibody, human IgG1, V domains shown, Humanized F2.154.1; VH H1 + VL L1b; expressed as human IgG1) VH: EVQLVQSGAEVKKPGSSVKVSCKASGYTFSDYEMHWVRQAPGQGLEWMGTIDPETGNTAYTQKFMDRVTITADKSTSTAYMELSSLRSEDTAVYYCTRGYSFTYWGQGTLVTVSS VL: DIVMTQTPLSLPVTPGEPASISCRSSQNIVHSNRNTYLQWYLQKPGQSPQLLIFKVSNRFSGVPDRFSGSGSGTDFTLKISRVEAEDVGVYYCFQGSHVPFTFGQGTKLEIK
10 | 0.359 | 3550 | 0.169 | 0.324 | 0.895 | 1.97 | 2.5 | 2.6 | 2.58 | 2.6 | hAb001H2L1 (antibody, human IgG1, V domains shown, Humanized F2.169.2; VH H2 + VL L1; expressed as human IgG1) VH: EVQLVESGGGLVQPGGSLRLSCAASGFSFNTNAMNWVRQAPGKGLEWVGRIRSKSNNYATYYADSVKDRFTISRDDSKSSLYLQMNSLKTEDTAVYYCVRDGYYVLFAYWGQGTLVTVSS VL: DIVMTQTPLSLPVTPGEPASISCRFSQSIVNSNGNTYLEWFLQKPGQSPQLLIYKVSNRFSGVPDRFSGSGSGTDFTLKISRVEAEDVGVYYCFQGSHVPFTFGQGTKLEIK

Reference: patent US20260116991A1 (HAINAN SIMCERE ZAIMING PHARMACEUTICAL, published 2026)
